Assay results: patent US20090099029

B1: DAPK2 (protein)
chain: MFQASMRSPNMEPFKQQKVEDFYDIGEELGSGQFAIVKKCREKSTGLEYAAKFIKKRQSRASRRGVSREEIEREVSILRQVLHHNVITLHDVYENRTDVVLILELVSGGELFDFLAQKESLSEEEATSFIKQILDGVNYLHTKKIAHFDLKPENIMLLDKNIPIPHIKLIDFGLAHEIEDGVEFKNIFGTPEFVAPEIVNYEPLGLEADMWSIGVITYILLSGASPFLGDTKQETLANITAVSYDFDEEFFSQTSELAKDFIRKLLVKETRKRLTIQEALRHPWITPVDNQQAMVRRESVVNLENFRKQYVRRRWKLSFSIVSLCNHLTRSLMKKVHLRPDEDLRNCESDTEEDIARRKALHPRRRSSTS
B2: DAPK3(ZIPK) (protein)
chain: MSTFRQEDVEDHYEMGEELGSGQFAIVRKCRQKGTGKEYAAKFIKKRRLSSSRRGVSREEIEREVNILREIRHPNIITLHDIFENKTDVVLILELVSGGELFDFLAEKESLTEDEATQFLKQILDGVHYLHSKRIAHFDLKPENIMLLDKNVPNPRIKLIDFGIAHKIEAGNEFKNIFGTPEFVAPEIVNYEPLGLEADMWSIGVITYILLSGASPFLGETKQETLTNISAVNYDFDEEYFSNTSELAKDFIRRLLVKDPKRRMTIAQSLEHSWIKAIRRRNVRGEDSGRKPERRRLKTTRLKEYTIKSHSSLPPNNSYADFERFSKVLEEAAAAEEGLRELQRSRRLCHEDVEALAAIYEEKEAWYREESDSLGQDLRRLRQELLKTEALKRQAQEEAKGALLGTSGLKRRFSRLENRYEALAKQVASEMRFVQDLVRALEQEKLQGVECGLR
B3: DMPK (protein)
chain: MSAEVRLRRLQQLVLDPGFLGLEPLLDLLLGVHQELGASELAQDKYVADFLQWAEPIVVRLKEVRLQRDDFEILKVIGRGAFSEVAVVKMKQTGQVYAMKIMNKWDMLKRGEVSCFREERDVLVNGDRRWITQLHFAFQDENYLYLVMEYYVGGDLLTLLSKFGERIPAEMARFYLAEIVMAIDSVHRLGYVHRDIKPDNILLDRCGHIRLADFGSCLKLRADGTVRSLVAVGTPDYLSPEILQAVGGGPGTGSYGPECDWWALGVFAYEMFYGQTPFYADSTAETYGKIVHYKEHLSLPLVDEGVPEEARDFIQRLLCPPETRLGRGGAGDFRTHPFFFGLDWDGLRDSVPPFTPDFEGATDTCNFDLVEDGLTAMVSGGGETLSDIREGAPLGVHLPFVGYSYSCMALRDSEVPGPTPMELEAEQLLEPHVQAPSLEPSVSPQDETAEVAVPAAVPAAEAEAEVTLRELQEALEEEVLTRQSLSREMEAIRTDNQNFASQLREAEARNRDLEAHVRQLQERMELLQAEGATAVTGVPSPRATDPPSHLDGPPAVAVGQCPLVGPGPMHRRHLLLPARVPRPGLSEALSLLLFAVVLSRAAALGCIGLVAHAGQLTAVWRRPGAARAP
B4: DYRK3 (protein)
chain: MGGTARGPGRKDAGPPGAGLPPQQRRLGDGVYDTFMMIDETKCPPCSNVLCNPSEPPPPRRLNMTTEQFTGDHTQHFLDGGEMKVEQLFQEFGNRKSNTIQSDGISDSEKCSPTVSQGKSSDCLNTVKSNSSSKAPKVVPLTPEQALKQYKHHLTAYEKLEIINYPEIYFVGPNAKKRHGVIGGPNNGGYDDADGAYIHVPRDHLAYRYEVLKIIGKGSFGQVARVYDHKLRQYVALKMVRNEKRFHRQAAEEIRILEHLKKQDKTGSMNVIHMLESFTFRNHVCMAFELLSIDLYELIKKNKFQGFSVQLVRKFAQSILQSLDALHKNKIIHCDLKPENILLKHHGRSSTKVIDFGSSCFEYQKLYTYIQSRFYRAPEIILGSRYSTPIDIWSFGCILAELLTGQPLFPGEDEGDQLACMMELLGMPPPKLLEQSKRAKYFINSKGIPRYCSVTTQADGRVVLVGGRSRRGKKRGPPGSKDWGTALKGCDDYLFIEFLKRCLHWDPSARLTPAQALRHPWISKSVPRPLTTIDKVSGKRVVNPASAFQGLGSKLPPVVGIANKLKANLMSETNGSIPLCSVLPKLIS
B5: EPHA4 (protein)
chain: SRRRSKYSKAKQEADEEKHLNQGVRTYVDPFTYEDPNQAVREFAKEIDASCIKIEKVIGVGEFGEVCSGRLKVPGKREICVAIKTLKAGYTDKQRRDFLSEASIMGQFDHPNIIHLEGVVTKCKPVMIITEYMENGSLDAFLRKNDGRFTVIQLVGMLRGIGSGMKYLSDMSYVHRDLAARNILVNSNLVCKVSDFGMSRVLEDDPEAAYTTRGGKIPIRWTAPEAIAYRKFTSASDVWSYGIVMWEVMSYGERPYWDMSNQDVIKAIEEGYRLPPPMDCPIALHQLMLDCWQKERSDRPKFGQIVNMLDKLIRNPNSLKRTGTESSRPNTALLDPSSPEFSAVVSVGDWLQAIKMDRYKDNFTAAGYTTLEAVVHVNQEDLARIGITAITHQNKILSSVQAMRTQMQQMHGRMVPV
B6: GRK4 (protein)
chain: MELENIVANSLLLKARQGGYGKKSGRSKKWKEILTLPPVSQCSELRHSIEKDYSSLCDKQPIGRRLFRQFCDTKPTLKRHIEFLDAVAEYEVADDEDRSDCGLSILDRFFNDKLAAPLPEIPPDVVTECRLGLKEENPSKKAFEECTRVAHNYLRGEPFEEYQESSYFSQFLQWKWLERQPVTKNTFRHYRVLGKGGFGEVCACQVRATGKMYACKKLQKKRIKKRKGEAMALNEKRILEKVQSRFVVSLAYAYETKDALCLVLTIMNGGDLKFHIYNLGNPGFDEQRAVFYAAELCCGLEDLQRERIVYRDLKPENILLDDRGHIRISDLGLATEIPEGQRVRGRVGTVGYMAPEVVNNEKYTFSPDWWGLGCLIYEMIQGHSPFKKYKEKVKWEEVDQRIKNDTEEYSEKFSEDAKSICRMLLTKNPSKRLGCRGEGAAGVKQHPVFKDINFRRLEANMLEPPFCPDPHAVYCKDVLDIEQFSVVKGIYLDTADEDFYARFATGCVSIPWQNEMIESGCFKDINKSESEEALPLDLDKNIHTPVSRPNRGFFYRLFRRGGCLTMVPSEKEVEPKQC
B7: GRK6 (protein)
chain: MELENIVANTVLLKAREGGGGNRKGKSKKWRQMLQFPHISQCEELRLSLERDYHSLCERQPIGRLLFREFCATRPELSRCVAFLDGVAEYEVTPDDKRKACGRQLTQNFLSHTGPDLIPEVPRQLVTNCTQRLEQGPCKDLFQELTRLTHEYLSVAPFADYLDSIYFNRFLQWKWLERQPVTKNTFRQYRVLGKGGFGEVCACQVRATGKMYACKKLEKKRIKKRKGEAMALNEKQILEKVNSRFVVSLAYAYETKDALCLVLTLMNGGDLKFHIYHMGQAGFPEARAVFYAAEICCGLEDLHRERIVYRDLKPENILLDDHGHIRISDLGLAVHVPEGQTIKGRVGTVGYMAPEVVKNERYTFSPDWWALGCLLYEMIAGQSPFQQRKKKIKREEVERLVKEVPEEYSERFSPQARSLCSQLLCKDPAERLGCRGGSAREVKEHPLFKKLNFKRLGAGMLEPPFKPDPQAIYCKDVLDIEQFSTVKGVELEPTDQDFYQKFATGSVPIPWQNEMVETECFQELNVFGLDGSVPPDLDWKGQPPAPPKKGLLQRLFSRQDCCGNCSDSEEELPTRL
B8: GRK7 (protein)
chain: MVDMGALDNLIANTAYLQARKPSDCDSKELQRRRRSLALPGLQGCAELRQKLSLNFHSLCEQQPIGRRLFRDFLATVPTFRKAATFLEDVQNWELAEEGPTKDSALQGLVATCASAPAPGNPQPFLSQAVATKCQAATTEEERVAAVTLAKAEAMAFLQEQPFKDFVTSAFYDKFLQWKLFEMQPVSDKYFTEFRVLGKGGFGEVCAVQVKNTGKMYACKKLDKKRLKKKGGEKMALLEKEILEKVSSPFIVSLAYAFESKTHLCLVMSLMNGGDLKFHIYNVGTRGLDMSRVIFYSAQIACGMLHLHELGIVYRDMKPENVLLDDLGNCRLSDLGLAVEMKGGKPITQRAGTNGYMAPEILMEKVSYSYPVDWFAMGCSIYEMVAGRTPFKDYKEKVSKEDLKQRTLQDEVKFQHDNFTEEAKDICRLFLAKKPEQRLGSREKSDDPRKHHFFKTINFPRLEAGLIEPPFVPDPSVVYAKDIAEIDDFSEVRGVEFDDKDKQFFKNFATGAVPIAWQEEIIETGLFEELNDPNRPTGCEEGNSSKSGVCLLL
B9: GSK3A (protein)
chain: MSGGGPSGGGPGGSGRARTSSFAEPGGGGGGGGGGPGGSASGPGGTGGGKASVGAMGGGVGASSSGGGPGGSGGGGSGGPGAGTSFPPPGVKLGRDSGKVTTVVATLGQGPERSQEVAYTDIKVIGNGSFGVVYQARLAETRELVAIKKVLQDKRFKNRELQIMRKLDHCNIVRLRYFFYSSGEKKDELYLNLVLEYVPETVYRVARHFTKAKLTIPILYVKVYMYQLFRSLAYIHSQGVCHRDIKPQNLLVDPDTAVLKLCDFGSAKQLVRGEPNVSYICSRYYRAPELIFGATDYTSSIDVWSAGCVLAELLLGQPIFPGDSGVDQLVEIIKVLGTPTREQIREMNPNYTEFKFPQIKAHPWTKVFKSRTPPEAIALCSSLLEYTPSSRLSPLEACAHSFFDELRCLGTQLPNNRPLPPLFNFSAGELSIQPSLNAILIPPHLRSPAGTTTLTPSSQALTETPTSSDWQSTDATPTLTNSS
B10: IKBKB (protein)
chain: MSWSPSLTTQTCGAWEMKERLGTGGFGNVIRWHNQETGEQIAIKQCRQELSPRNRERWCLEIQIMRRLTHPNVVAARDVPEGMQNLAPNDLPLLAMEYCQGGDLRKYLNQFENCCGLREGAILTLLSDIASALRYLHENRIIHRDLKPENIVLQQGEQRLIHKIIDLGYAKELDQGSLCTSFVGTLQYLAPELLEQQKYTVTVDYWSFGTLAFECITGFRPFLPNWQPVQWHSKVRQKSEVDIVVSEDLNGTVKFSSSLPYPNNLNSVLAERLEKWLQLMLMWHPRQRGTDPTYGPNGCFKALDDILNLKLVHILNMVTGTIHTYPVTEDESLQSLKARIQQDTGIPEEDQELLQEAGLALIPDKPATQCISDGKLNEGHTLDMDLVFLFDNSKITYETQISPRPQPESVSCILQEPKRNLAFFQLRKVWGQVWHSIQTLKEDCNRLQQGQRAAMMNLLRNNSCLSKMKNSMASMSQQLKAKLDFFKTSIQIDLEKYSEQTEFGITSDKLLLAWREMEQAVELCGRENEVKLLVERMMALQTDIVDLQRSPMGRKQGGTLDDLEEQARELYRRLREKPRDQRTEGDSQEMVRLLLQAIQSFEKKVRVIYTQLSKTVVCKQKALELLPKVEEVVSLMNEDEKTVVRLQEKRQKELWNLLKIACSKVRGPVSGSPDSMNASRLSQPGQLMSQPSTASNSLPEPAKKSEELVAEAHNLCTLLENAIQDTVREQDQSFTALDWSWLQTEEEEHSCLEQAS

Target: T1, Bovine, dephosphorylated, Myelin Basic Protein (MBP), P02687
T1 chain: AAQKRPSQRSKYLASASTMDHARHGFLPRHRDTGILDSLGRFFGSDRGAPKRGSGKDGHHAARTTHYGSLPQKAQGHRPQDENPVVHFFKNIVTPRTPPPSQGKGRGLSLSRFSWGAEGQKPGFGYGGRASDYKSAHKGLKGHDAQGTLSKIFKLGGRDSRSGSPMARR

Protein	MBP Kinase Activity
B1	Negative
B2	Negative
B3	Negative
B4	Negative
B5	Strong
B6	Negative
B7	Negative
B8	Negative
B9	Weak
B10	Weak
